The values that follow come from patent US20200283529A1 (UNIVERSITY OF BRITISH COLUMBIA, published 2020).

For assay [1], the target named is T1, HLA-A*24:02 on FlowPRA Single Antigen beads (human, UniProt P04439-2 25-302 at identity 0.92)).
T1 construct: Bought HLA class I antigen on One Lambda beads. b2m and peptide are not described
T1 MHC heavy: not shown
The experiment in a line: single antigen FlowPRA bead assay, flow cytometry. In general terms: In flow cytometry, cells or beads pass a laser one at a time.

Assay [2] concerns the target T2, HLA-A*23:01 on FlowPRA Single Antigen beads (human, UniProt P13749 25-305 (Pan troglodytes entry), limits assumed).
T2 construct: Bought HLA class I antigen on One Lambda beads. b2m and peptide are not described
T2 MHC heavy: not shown
As to the kind of experiment: single antigen FlowPRA bead assay, flow cytometry.

B1: BB7.2 antibody (antibody, IgG2b, V domains shown)
VH: QVQLQQSGPELVKPGASVKMSCKASGYTFTSYHIQWVKQRPGQGLEWIGWIYPGDGSTQYNEKFKGKTTLTADKSSSTAYMLLSSLTSEDSAIYFCAREGTYYAMDYWGQGTSVTVSS
VL: DVLMTQTPLSLPVSLGDQVSISCRSSQSIVHSNGNTYLEWYLQKPGQSPKLLIYKVSNRFSGVPDRFSGSGSGTDFTLKISRVEAEDLGVYYCFQGSHVPRTFGGGTKLEIK
notes: also called mouse monoclonal antibody (BB7.2)
For B1, the binding result in assay [1] and in assay [2] was “no binding” throughout.
